Source: the supplement of paper PMC10724198
± gives the standard deviation of the averaged measurements.

tested on: Saccharomyces cerevisiae; assay: protein stability index of tFT-peptide fusion (C-terminal peptide) (PSI (0-1 scale)); higher = more stable (slower turnover); conditions: genetic background: wild type; temperature: 30 C
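Note: PSI is a weighted mean of sequencing reads over stability bins, variants kept only with over 10 reads, mCherry proximal and sfGFP distal, peptide attached via GGGS linker.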

| Sequence | protein stability index |
| --- | --- |
| MYHGKKTAGINV | 0.7 ± 0.037 |
| MYRLSFAAGRGS | 0.688 ± 0.016 |
| NAFTMWVSRQAR | 0.77 ± 0.02 |
| NALFGWMRGCLS | 0.724 ± 0.034 |
| NARMPPHIVAGI | 0.64 ± 0.034 |
| NASVRMFIRTGC | 0.6971 ± 0.00097 |
| NCMFKSNKQGGA | 0.6749 ± 0.0021 |
| NCPIQEPVSAIY | 0.661 ± 0.007 |
| NCTHKKKTLTPN | 0.726 ± 0.012 |
| NDGSDYRFLSLK | 0.706 ± 0.011 |
| NECKIKKDNTKK | 0.672 ± 0.06 |
| NEEVAKKKKIRV | 0.667 ± 0.061 |
| NEINKPTRSQTA | 0.644 ± 0.04 |
| NENFILCPRVNL | 0.701 ± 0.035 |
| NESSASKEKSNI | 0.69 ± 0.038 |
| NFQLIKKHSKNN | 0.63552 ± 0.00029 |
| NGGCCLVFRIEP | 0.643 ± 0.029 |
| NGQSELHDHYME | 0.651 ± 0.013 |
| NGSSFSRTVRFM | 0.624 ± 0.038 |
| NGVGGMHGINIM | 0.696 ± 0.076 |
| NHFQYHSPVASE | 0.688 ± 0.028 |
| NHLANHAGCQKT | 0.667 ± 0.028 |
| NHSTGLYAARLR | 0.725 ± 0.041 |
| NHVAPNSPSPQD | 0.731 ± 0.027 |
| NIIQTYITLNEL | 0.74 ± 0.12 |
| NIMNKIFQKQKE | 0.642 ± 0.092 |

| Sequence | protein stability index |
| --- | --- |
| NIPAAGCPRATA | 0.711 ± 0.033 |
| NKEPKRKHKNNK | 0.675 ± 0.017 |
| NKIKTSRKKNNQ | 0.723 ± 0.017 |
| NKILIKKEQEEI | 0.64356 ± 0.00045 |
| NKKKKTAIPPKR | 0.672 ± 0.021 |
| NKKKPKRTGKTQ | 0.674 ± 0.025 |
| NKKKREYKGMNF | 0.686 ± 0.044 |
| NKKVRSKRKEMN | 0.637 ± 0.093 |
| NKLKEKNEKYKV | 0.659 ± 0.025 |
| NKNKDNNEIVKK | 0.677 ± 0.068 |
| NKNVGLKKSEKS | 0.711 ± 0.019 |
| NKQNKKKKTNKK | 0.6792 ± 0.0036 |
| NKQTKTQPTKKE | 0.725 ± 0.015 |
| NKYTKSKKNNKE | 0.761 ± 0.14 |
| NLKCRMSLKTLG | 0.705 ± 0.0018 |
| NMCHVYTIIPSK | 0.632 ± 0.024 |
| NMPIGVRLLLGR | 0.652 ± 0.011 |
| NNMNRKKGKKKT | 0.7027 ± 0.0018 |
| NNRKKKGRRRQE | 0.674 ± 0.042 |
| NPAVASPPPSSS | 0.737 ± 0.036 |
| NPHLTLPVHPPH | 0.709 ± 0.026 |
| NPHRRPPRAPWP | 0.689 ± 0.039 |
| NRDGWWVSNGCR | 0.796 ± 0.07 |
| NRGYRKDDKGMR | 0.689 ± 0.042 |
| NRHQVSKTEIKL | 0.72 ± 0.016 |
| NRMLRAQRKNRT | 0.689 ± 0.033 |

| Sequence | protein stability index |
| --- | --- |
| NRNVLKTRKKST | 0.593 ± 0.018 |
| NSDEYKVYGEKL | 0.661 ± 0.015 |
| NSEKKKKRKEKK | 0.731 ± 0.024 |
| NSKTKNCYKTGS | 0.705 ± 0.061 |
| NSPPPPRLRSSL | 0.6937 ± 0.0018 |
| NSQAIKSTARQK | 0.707 ± 0.00054 |
| NSRLLPWRHELR | 0.784 ± 0.1 |
| NSWCRFLRRCLV | 0.609 ± 0.074 |
| NSWGRRAGMRGG | 0.731 ± 0.1 |
| NTIPRVTPDKSQ | 0.642 ± 0.093 |
| NTLTSCRPVASK | 0.704 ± 0.037 |
| NTQSRNKSYTER | 0.671 ± 0.0091 |
| NTRGRGQCCQGN | 0.576 ± 0.053 |
| NTSLLMAWPIPP | 0.556 ± 0.032 |
| NVCSSFLAELVN | 0.6051 ± 0.0029 |
| NVEFVVERIREK | 0.6 ± 0.027 |
| NVNMGSRGQFNF | 0.628 ± 0.026 |
| NVRVLKCLWGVG | 0.619 ± 0.029 |
| NVTCRPDKNELT | 0.643 ± 0.035 |
| NYDTIYGLHLYT | 0.73 ± 0.015 |
| NYSINQKNRKKN | 0.737 ± 0.013 |
| PAAPGLDLRHDP | 0.623 ± 0.037 |
| PAFGCTSRPFPG | 0.711 ± 0.031 |
| PAGILMQDSRRA | 0.589 ± 0.051 |
| PAPLSPTHPPLP | 0.71 ± 0.053 |
| PAPPAALPPPHP | 0.637 ± 0.077 |

| Sequence | protein stability index |
| --- | --- |
| PAPPHPPFPLLP | 0.705 ± 0.018 |
| PAPPLRVAPSRI | 0.67 ± 0.014 |
| PAPPPLLPPPPP | 0.597 ± 0.016 |
| PAPPPLPSSSPP | 0.696 ± 0.0019 |
| PAPPPPLPLHPR | 0.664 ± 0.046 |
| PAPPPPRRPLPP | 0.657 ± 0.0086 |
| PAPPPRPLPSPP | 0.713 ± 0.2 |
| PAPPPSPRILLL | 0.542 ± 0.042 |
| PAPPRYPLSSSS | 0.633 ± 0.011 |
| PAPRPPSPLSAP | 0.687 ± 0.039 |
| PAPSYHPVSPTA | 0.713 ± 0.0096 |
| PAPTRPSPPPLP | 0.641 ± 0.013 |
| PASPPSPLLLSL | 0.74 ± 0.066 |
| PAVFPSLENVAL | 0.732 ± 0.046 |
| PCINGSASRRSG | 0.6189 ± 0.0058 |
| PCLASHTVDSLP | 0.665 ± 0.013 |
| PCLLTNLPILPT | 0.626 ± 0.077 |
| PCLQQCLLIFLP | 0.566 ± 0.015 |
| PCMCKRNKQYRG | 0.649 ± 0.016 |
| PCPSVLPISLPH | 0.713 ± 0.06 |
| PCRPPSILAPHP | 0.739 ± 0.0097 |
| PCSVLVWGVLLP | 0.622 ± 0.032 |
| PCYCSAPRRSWA | 0.749 ± 0.04 |
